Results as given in the supplement of paper PMC9112550, “Optimization of the antimicrobial peptide Bac7 by deep mutational scanning” (BMC Biology, 2022).

Test system: Escherichia coli TOP10
Assay: shrunken log2 fold change of peptide-encoding DNA abundance (4.5 h post-induction vs induction); higher = less antimicrobial activity (less host growth inhibition)
Conditions: time post-induction: 4.5 h; library: site-saturation at positions 5, 18, 19, 20
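Further: peptides expressed intracellularly from a pBAD plasmid library in pooled LB shake-flask culture, induced with 0.3% L-arabinose, DNA abundance read by NGS, three biological replicates, DESeq2 with apeglm shrinkage.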

Sequence	shrunken log2 fold change
RRIRSRPPRLPRPRPRPMNYPRP	-0.162
RRIRSRPPRLPRPRPRPMPNPRP	-0.0112
RRIRSRPPRLPRPRPRPMSWPRP	0.0314
RRIRSRPPRLPRPRPRPMVYPRP	-0.111
RRIRSRPPRLPRPRPRPNCNPRP	-0.473
RRIRSRPPRLPRPRPRPNEKPRP	-0.0451
RRIRSRPPRLPRPRPRPNFTPRP	-0.0286
RRIRSRPPRLPRPRPRPNFVPRP	-0.0465
RRIRSRPPRLPRPRPRPNFYPRP	-0.252
RRIRSRPPRLPRPRPRPNGNPRP	-0.384
RRIRSRPPRLPRPRPRPNIHPRP	0.829
RRIRSRPPRLPRPRPRPNIMPRP	-0.49
RRIRSRPPRLPRPRPRPNKAPRP	0.0174
RRIRSRPPRLPRPRPRPNKHPRP	-0.507
RRIRSRPPRLPRPRPRPNLSPRP	-0.425
RRIRSRPPRLPRPRPRPNPQPRP	0.126
RRIRSRPPRLPRPRPRPNQAPRP	-0.169
RRIRSRPPRLPRPRPRPNRCPRP	0.173
RRIRSRPPRLPRPRPRPNRMPRP	0.309
RRIRSRPPRLPRPRPRPNSAPRP	-0.35
RRIRSRPPRLPRPRPRPNTRPRP	-0.186
RRIRSRPPRLPRPRPRPNTVPRP	-0.308
RRIRSRPPRLPRPRPRPNTWPRP	-0.637
RRIRSRPPRLPRPRPRPNVIPRP	0.0185
RRIRSRPPRLPRPRPRPNWEPRP	0.015

Sequence	shrunken log2 fold change
RRIRSRPPRLPRPRPRPNWQPRP	0.0694
RRIRSRPPRLPRPRPRPPAIPRP	0.413
RRIRSRPPRLPRPRPRPPANPRP	0.283
RRIRSRPPRLPRPRPRPPCHPRP	-0.0302
RRIRSRPPRLPRPRPRPPCWPRP	0.29
RRIRSRPPRLPRPRPRPPDCPRP	-0.046
RRIRSRPPRLPRPRPRPPDLPRP	0.543
RRIRSRPPRLPRPRPRPPFAPRP	1.88
RRIRSRPPRLPRPRPRPPGCPRP	0.676
RRIRSRPPRLPRPRPRPPIFPRP	-0.576
RRIRSRPPRLPRPRPRPPKMPRP	0.00423
RRIRSRPPRLPRPRPRPPLWPRP	0.704
RRIRSRPPRLPRPRPRPPNGPRP	0.36
RRIRSRPPRLPRPRPRPPPCPRP	0.408
RRIRSRPPRLPRPRPRPPPIPRP	0.572
RRIRSRPPRLPRPRPRPPQLPRP	0.209
RRIRSRPPRLPRPRPRPPQNPRP	0.294
RRIRSRPPRLPRPRPRPPQSPRP	0.373
RRIRSRPPRLPRPRPRPPQYPRP	-0.0375
RRIRSRPPRLPRPRPRPPSGPRP	0.489
RRIRSRPPRLPRPRPRPPTFPRP	-0.0599
RRIRSRPPRLPRPRPRPPVNPRP	-0.489
RRIRSRPPRLPRPRPRPPVQPRP	0.319
RRIRSRPPRLPRPRPRPPWCPRP	0.309
RRIRSRPPRLPRPRPRPPWGPRP	0.317

Sequence	shrunken log2 fold change
RRIRSRPPRLPRPRPRPPWIPRP	-0.0981
RRIRSRPPRLPRPRPRPPWQPRP	0.449
RRIRSRPPRLPRPRPRPPWTPRP	0.319
RRIRSRPPRLPRPRPRPQAYPRP	0.0251
RRIRSRPPRLPRPRPRPQCTPRP	0.294
RRIRSRPPRLPRPRPRPQDEPRP	-0.101
RRIRSRPPRLPRPRPRPQDKPRP	-0.0231
RRIRSRPPRLPRPRPRPQDQPRP	-0.0695
RRIRSRPPRLPRPRPRPQESPRP	-0.0242
RRIRSRPPRLPRPRPRPQFNPRP	-0.498
RRIRSRPPRLPRPRPRPQGHPRP	0.00442
RRIRSRPPRLPRPRPRPQHQPRP	-0.0399
RRIRSRPPRLPRPRPRPQICPRP	-0.0872
RRIRSRPPRLPRPRPRPQIDPRP	-0.0914
RRIRSRPPRLPRPRPRPQKLPRP	0.0126
RRIRSRPPRLPRPRPRPQKQPRP	-0.122
RRIRSRPPRLPRPRPRPQKRPRP	-0.343
RRIRSRPPRLPRPRPRPQLWPRP	0.0725
RRIRSRPPRLPRPRPRPQMHPRP	-0.351
RRIRSRPPRLPRPRPRPQNFPRP	0.00814
RRIRSRPPRLPRPRPRPQNKPRP	-0.561
RRIRSRPPRLPRPRPRPQPDPRP	-0.185
RRIRSRPPRLPRPRPRPQPEPRP	-0.279
RRIRSRPPRLPRPRPRPQPFPRP	-0.0168
RRIRSRPPRLPRPRPRPQPNPRP	-0.00561

Sequence	shrunken log2 fold change
RRIRSRPPRLPRPRPRPQPPPRP	0.489
RRIRSRPPRLPRPRPRPQQLPRP	-0.0917
RRIRSRPPRLPRPRPRPQQVPRP	0.0131
RRIRSRPPRLPRPRPRPQRIPRP	-0.322
RRIRSRPPRLPRPRPRPQRKPRP	0.264
RRIRSRPPRLPRPRPRPQRPPRP	0.0966
RRIRSRPPRLPRPRPRPQSKPRP	-0.0711
RRIRSRPPRLPRPRPRPQTQPRP	0.198
RRIRSRPPRLPRPRPRPQTVPRP	-0.26
RRIRSRPPRLPRPRPRPQVFPRP	0.0316
RRIRSRPPRLPRPRPRPQVSPRP	-0.236
RRIRSRPPRLPRPRPRPQWIPRP	-0.425
RRIRSRPPRLPRPRPRPQWQPRP	0.0358
RRIRSRPPRLPRPRPRPQYAPRP	-0.282
RRIRSRPPRLPRPRPRPQYFPRP	-0.18
RRIRSRPPRLPRPRPRPQYNPRP	-0.863
RRIRSRPPRLPRPRPRPQYSPRP	-0.165
RRIRSRPPRLPRPRPRPQYYPRP	-0.29
RRIRSRPPRLPRPRPRPRALPRP	0.0323
RRIRSRPPRLPRPRPRPREWPRP	0.759
RRIRSRPPRLPRPRPRPRFCPRP	0.23
RRIRSRPPRLPRPRPRPRFVPRP	0.129
RRIRSRPPRLPRPRPRPRGCPRP	0.383
RRIRSRPPRLPRPRPRPRGNPRP	0.0829
RRIRSRPPRLPRPRPRPRHNPRP	-0.324

Sequence	shrunken log2 fold change
RRIRSRPPRLPRPRPRPRKDPRP	0.271
RRIRSRPPRLPRPRPRPRLCPRP	0.28
RRIRSRPPRLPRPRPRPRLHPRP	0.15
RRIRSRPPRLPRPRPRPRLRPRP	0.287
RRIRSRPPRLPRPRPRPRMWPRP	0.114
RRIRSRPPRLPRPRPRPRNYPRP	-0.465
RRIRSRPPRLPRPRPRPRPDPRP	0.218
RRIRSRPPRLPRPRPRPRPVPRP	1.01
RRIRSRPPRLPRPRPRPRRIPRP	0.135
RRIRSRPPRLPRPRPRPRRQPRP	0.681
RRIRSRPPRLPRPRPRPRRRPRP	0.312
RRIRSRPPRLPRPRPRPRTPPRP	0.502
RRIRSRPPRLPRPRPRPRTYPRP	-0.452
RRIRSRPPRLPRPRPRPRYLPRP	-0.329
RRIRSRPPRLPRPRPRPSCIPRP	-0.223
RRIRSRPPRLPRPRPRPSCPPRP	-0.494
RRIRSRPPRLPRPRPRPSCQPRP	-0.175
RRIRSRPPRLPRPRPRPSETPRP	-0.44
RRIRSRPPRLPRPRPRPSFCPRP	-0.251
RRIRSRPPRLPRPRPRPSGCPRP	0.208
RRIRSRPPRLPRPRPRPSGDPRP	0.118
RRIRSRPPRLPRPRPRPSHPPRP	-0.277
RRIRSRPPRLPRPRPRPSHTPRP	-0.572
RRIRSRPPRLPRPRPRPSIIPRP	-0.253
RRIRSRPPRLPRPRPRPSIKPRP	-0.613

Sequence	shrunken log2 fold change
RRIRSRPPRLPRPRPRPSIMPRP	-0.196
RRIRSRPPRLPRPRPRPSKDPRP	-0.61
RRIRSRPPRLPRPRPRPSKQPRP	-0.225
RRIRSRPPRLPRPRPRPSLEPRP	0.0147
RRIRSRPPRLPRPRPRPSLGPRP	0.319
RRIRSRPPRLPRPRPRPSLYPRP	-0.432
RRIRSRPPRLPRPRPRPSNDPRP	-0.349
RRIRSRPPRLPRPRPRPSPSPRP	0.0408
RRIRSRPPRLPRPRPRPSPTPRP	-0.0425
RRIRSRPPRLPRPRPRPSQCPRP	-0.265
RRIRSRPPRLPRPRPRPSSEPRP	0.0612
RRIRSRPPRLPRPRPRPSSKPRP	-0.219
RRIRSRPPRLPRPRPRPSSTPRP	-0.397
RRIRSRPPRLPRPRPRPSTDPRP	-0.168
RRIRSRPPRLPRPRPRPSVAPRP	0.575
RRIRSRPPRLPRPRPRPSVIPRP	-0.602
RRIRSRPPRLPRPRPRPSYAPRP	-0.835
RRIRSRPPRLPRPRPRPTAAPRP	1.03
RRIRSRPPRLPRPRPRPTAWPRP	0.47
RRIRSRPPRLPRPRPRPTCLPRP	-0.117
RRIRSRPPRLPRPRPRPTCSPRP	0.0811
RRIRSRPPRLPRPRPRPTEHPRP	-0.0545
RRIRSRPPRLPRPRPRPTFIPRP	-0.173
RRIRSRPPRLPRPRPRPTIDPRP	-0.00141
RRIRSRPPRLPRPRPRPTIHPRP	-0.51
